Earlier results on 1 molecule are cited in paper PMC2709459 (Biochimica et biophysica acta, 2008).

The data set deals with C5aR. Conditions: C5aR in transfected CHO cells.

B1: C5a: complement C5a fragment, anaphylatoxin ligand of C5aR (protein, UniProt P01031 678-751, looked up)
C5a anaphylatoxin: TLQKKIEEIAAKYKHSVVKKCCYDGACVNNDETCEQRAARISLGPRCIKAFTECCVVASQLRANISHKDMQLGR
modifications: C5a anaphylatoxin
B1: the Kd was 10 nM.
